3 molecules from US20070020258A1 (published 2007) can be followed below.

Assay [1] concerns the target T1, human IgE (ND and PS allotypes) (human, UniProt P01854-1 1-428, tracer iodinated with 125I (chloramine T)).
T1 construct: IgE used for the Scatchard Kd; also called 125I IgE; unlabelled IgE
Put plainly: 125I-IgE equilibrium binding, Scatchard. On the procedure: e. Scatchard analysis was performed utilizing a Fortran program (scanplot) based on the Ligand program written by P. Munson at NIH. Scatplot uses a mass action equation fitting bound as a function of total using the Rodbard type regression analysis.

Assay [2] has as its target T2, human IgE purified from U266B1 cells (human, UniProt P01854-1 1-428).
T2 construct: domain: Fcε4; Whole IgE; its X residues are spacers that keep Kabat numbering and are not part of the protein; also called U266 IgE; U266 IgE standard
Put plainly: IgE/FcεRI inhibition ELISA. The protocol:
A 96-well assay plate (Manufn Nunc.) was coated with 0.05 ml of the FcεRI alpha chain IgG1 chimeric receptor in 1 μg/ml coating buffer ([…] carbonate/bicarbonate, pH 9.6). Assay was done for 12 hours at 4-8° C. The wells were aspirated and 250 μl blocking buffer (PBS-1% BSA pH 7.2) was added and incubated for one hour at 4° C. […] The FcεRI-coated wells were washed three times with PBS-0.05% Tween20, and then 50 μl from the sample wells were transferred and incubated with agitation for 30 minutes at 25° C. 50 μl/well of streptavidin-HRP diluted 1:5000 in assay buffer was incubated for 15 minutes with agitation and then the plate was washed as before. 50 μl/well of Microwell peroxidase substrate (Kirkgaard & Parry Laboratories) was added and color was developed for 30 minutes.
A general note: An ELISA detects its analyte on a solid surface through an enzyme-linked reagent.

The term Kd denotes the constant that tells how readily two partners part at equilibrium. Read a low Kd as a tighter complex.

T1 sequence (P01854 other isoform, or with tags, fused parts or gaps): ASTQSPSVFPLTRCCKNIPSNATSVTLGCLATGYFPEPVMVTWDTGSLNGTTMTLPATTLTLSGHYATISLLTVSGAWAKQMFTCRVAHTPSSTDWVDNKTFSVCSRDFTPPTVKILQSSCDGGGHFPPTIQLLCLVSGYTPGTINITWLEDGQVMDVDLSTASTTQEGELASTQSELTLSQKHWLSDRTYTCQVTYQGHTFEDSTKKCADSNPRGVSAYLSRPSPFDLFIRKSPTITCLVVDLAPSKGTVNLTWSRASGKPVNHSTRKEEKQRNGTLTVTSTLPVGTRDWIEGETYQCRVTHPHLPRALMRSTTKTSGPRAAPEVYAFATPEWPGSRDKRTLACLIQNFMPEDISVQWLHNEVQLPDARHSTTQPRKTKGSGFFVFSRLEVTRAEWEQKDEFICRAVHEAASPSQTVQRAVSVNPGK
T2 sequence (P01854 other isoform, or with tags, fused parts or gaps): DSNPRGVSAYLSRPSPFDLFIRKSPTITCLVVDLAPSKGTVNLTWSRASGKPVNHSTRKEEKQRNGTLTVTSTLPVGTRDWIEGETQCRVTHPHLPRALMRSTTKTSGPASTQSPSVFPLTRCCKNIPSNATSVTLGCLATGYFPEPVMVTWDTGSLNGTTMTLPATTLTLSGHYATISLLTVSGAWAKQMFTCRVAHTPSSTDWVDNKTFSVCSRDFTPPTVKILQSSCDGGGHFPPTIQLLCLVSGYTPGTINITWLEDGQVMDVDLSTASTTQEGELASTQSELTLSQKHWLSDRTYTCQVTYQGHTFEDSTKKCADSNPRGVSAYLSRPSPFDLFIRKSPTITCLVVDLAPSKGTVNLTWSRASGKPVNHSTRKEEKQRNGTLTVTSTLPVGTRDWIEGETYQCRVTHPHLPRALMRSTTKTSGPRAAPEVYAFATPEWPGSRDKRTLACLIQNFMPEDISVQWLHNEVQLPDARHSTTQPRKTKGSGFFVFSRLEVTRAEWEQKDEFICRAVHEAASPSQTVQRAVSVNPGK

B1: MAE15 (antibody, V domains shown)
VH: DVQHQESEPDLVKPSQSLSLTCTVTGYSITSGYNRHWIRQFPGNKLEWMGYIHYSGSTNYNPSLKRRISITRDTSKNQFFLQLNSVTTEDTATYYCARGSIYYYGSRYRYFDVWGAGTTVTVSS
VL: DIQLTQSPASLAVSLGQRATISCKASQSVDYDGDSYMNWYQQKPGQPPKLLIYAASNLESGIPARFSGSGSGTDFTLNIHPVEEEDAATYYCQQSNEDPFTFGAGT
notes: murine IgG1
B1: the Kd in assay [1] amounted to 70 nM.

B2: MAE11 (antibody, V domains shown)
VH: DVQLQESGPGLVKPSQSLSLACSVTGYSITSGYSWNWIRQFPGNKLEWMGSITYDGSSNYNPSLKNRISVTRDTSQNQFFLKLNSATAEDTATYYCARGSHYFGHWHFAVWGAGTTVTVSS
VL: DIVLTQSPASLAVSLGQRATISCKASQSVDYDGDSYMNWYQQKPGQPPILLIYAASYLGSEIPARFSGSGSGTDFTLNIHPVEEEDAATFYCQQSHEDPYTFGAGTKLEIK
notes: murine IgG1
For the molecule B2, in assay [2], the “ratio Var. X / IgL1H1” value was determined as 0.06 and the “ratio Var. X / MaE11” value is 1. In assay [1], the Kd was determined as 30 nM.

B3: MAE13 (antibody, V domains shown)
VH: DVQLQESGPGLVKPSQSLSLTCTVTGYTITSDNAWNWIRQFPGNKLEWMGYINHSGTTSYNPSLKSRISITRDTSKNQFFLQLNSVTTEDTATYYCAWVVAYAMDYWGQGTSVTVSS
VL: DIVMTQSQKFMSTSVGDRVSVTCKASQNVSSNVAWYQQKPGQSPKALIYSASYRYSGVPDRFTGSGSGTDFTLTISNVQSEDLAEYFCQQYYTYPLYTFGGGTKLEIKR
notes: murine IgG1
On to B3, for which binding in assay [1] was put at a Kd of 50 nM.
